We go through 13 molecules from patent publication US20050025764A1 (published 2005).

Assay [1] concerns the target T1, human CD20 (human, UniProt P11836 1-297).
T1 sequence (looked up): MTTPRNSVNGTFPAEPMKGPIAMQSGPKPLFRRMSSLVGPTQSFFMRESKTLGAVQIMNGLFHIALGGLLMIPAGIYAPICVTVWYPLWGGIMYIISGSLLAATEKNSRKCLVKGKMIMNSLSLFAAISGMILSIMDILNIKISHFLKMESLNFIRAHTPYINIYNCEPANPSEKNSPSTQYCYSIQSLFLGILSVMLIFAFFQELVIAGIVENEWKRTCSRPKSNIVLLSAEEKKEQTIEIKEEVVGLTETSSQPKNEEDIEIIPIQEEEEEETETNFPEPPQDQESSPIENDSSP
As to the kind of experiment: fixed Ramos cell ELISA, Fab 1 h, anti-His6 peroxidase, OD 450 (overall binding). As for the experimental part:
(§1) Ramos cells (ATCC) were grown in RPMI 1640 containing 10% heat inactivated Fetal Bovine Serum. Fifty microliters of Ramos cells (2-4×10⁶/ml), were pipetted into each well of a 96 well Poly-D-Lysine coated plate (BIOCAT Becton Dickinson Labware) and incubated at 37620 C., 5% CO₂ for 18 hours. Media was gently aspirated and […] of aqueous buffered zinc formalin (Anatech, Ltd.) was added to each well for 15 minutes at room temperature. Z-fix was removed and the plate was washed with phosphate-buffered saline (PBS) containing 0.05% Tween 20. The plate was blocked for 1 hour with 1% bovine serum albumin (BSA) in PBS. Dilutions of Fab or IgG were incubated with the fixed and blocked Ramos cells for 1 hour at room temperature. The plate was washed 3× with PBS 0.05% Tween […] of anti-His6 Peroxidase Mouse Monoclonal Antibody (Roche Diagnostics Corporation) at a 1:500 dilution were added to the wells and incubated 1 hour at room temperature. The plate was washed as above and developed with tetramethyl benzidine, and the reaction was stopped with 5N H₂SO₄. The plate absorbance was read at OD 450 nm. Dilutions of Fab and conjugate were in 1% BSA/PBS.

Assay [2] deals with T1, human CD20. As to the kind of experiment: fixed Ramos cell ELISA, off-rate format: overnight incubation in PBS/BSA after the Fab step, anti-His6 peroxidase, OD 450. The procedure: as §1
(§2) IgG assays were performed similarly except IgG bound was detected with goat anti-human IgG-HRP. To compare antibody off-rate, after incubation with Fab or IgG the plates were incubated over night in PBS/BSA, before proceeding with the second antibody step. To compare antibody on-rate, incubation steps for Fab/IgG binding and with the second antibody were both of 5 minutes duration.

Assay [3] has as its target T1, human CD20. In words: fixed Ramos cell ELISA, OD 450 nm.
The target of assay [4] is T1, human CD20. In words: IgG binding to SKW 6.4 cells, KinExA equilibrium software. As for the experimental part:
(§3) SKW 6.4 cells were grown in DMEM media supplemented with 10% FCS and harvested at 5-10×10⁵ cells per ml. […] For human peripheral blood B cells, fresh CD19 positively sorted B cells were obtained from Allcells. These cells were washed two times in PBS with 1% BSA and resuspended at a concentration of 8×10⁷/ml.
(§4) Twelve, 3 fold serial dilutions were then made and 100ul of each dilution placed in a 96 well plate. To each dilution […] of antibody at 100 ng/ml was added and the plate incubated at 37620 C., 5% CO₂ for 4 hours. Each sample was then filtered with a 96 well 1 micron filter (Millipore) to remove the cells and bound antibody. Free antibody in solution was then quantified using an ELISA. Briefly, free IgG was captured in a 96 well plate coated with 1 mg/ml of anti-human kappa antibody (Southern Biotechnology) and detected using an anti-human Fc antibody coupled with HRP (Southern Biotechnology). The plate was developed using Fast TMB substrate (Pierce) and read at 450 nm.
(§5) The Kd of the antibody was then determined using the KinExA equilibrium software for an unknown antigen concentration. The OD450 value for each serial dilution was fitted with an estimated antigen concentration and the actual antibody concentration. The Kd and actual antigen concentration were then calculated.

Assay [5] deals with T1, human CD20. As to the kind of experiment: IgG binding to SKW 6.4 B lymphoma cells, free antibody by ELISA, KinExA equilibrium software. As for the experimental part: as §3, §4, §5
The target in assay [6] is T1, human CD20. As to the kind of experiment: IgG binding to SKW 6.4 cells over time, free antibody by ELISA, direct kinetics KinExA software. The procedure:
SKW 6.4 cells were grown in DMEM media supplemented with 10% FCS and harvested at 5-10×10⁵ cells per ml. […] An equal volume of antibody at 100 ng/ml in PBS with 1% BSA at 37620 C. was then added to the cells and the timing for the experiment started. At time intervals from 60 seconds to 10800 seconds a sample of the antibody cell solution was sampled and filtered to remove cells and bound antibody. Free antibody remaining at each time point was then quantified using the ELISA described above.
The kinetics for the antibody cell reaction was calculated using the direct kinetics KinExA software. The OD450 value for each time point was fitted using the previously calculated Kd and antigen concentration and the Kon and Koff for the reaction calculated.

Assay [7] deals with T1, human CD20. As to the kind of experiment: fixed Ramos cell ELISA, IgG, on-rate format: 5 min IgG step and 5 min second antibody step, goat anti-human IgG-HRP, OD 450. The procedure:
as §1, §2

Assay [8] addresses T1, human CD20. As to the kind of experiment: fixed Ramos cell ELISA, on-rate format: 5 min Fab step and 5 min second antibody step, anti-His6 peroxidase, OD 450. The procedure: as §1
IgG assays were performed similarly except IgG bound was detected with goat anti-human IgG-HRP. […]

Regarding C2B8 Fab, in the assay with human CD20 [1], the EC50 (read off the curve) came out at 0.06 µg/mL.

B1: AME 4H5 Fab (Fab, V domains shown)
VH: QVQLVQSGAEVKKPGASVKVSCKASGYTFTSYNMHWVRQAPGQGLEWMGAIYPGNGDTSYNQKFKWRVTMTRDTSTSTVYMELSSLRSEDTAVYYCARSTYYGGDWQFDQWGKGTTVTVSS
VL: DIQMTQSPSSLSASVGDRVTITCRASSSVHYIHWYQQKPGKVPKLLIYATSNLASGVPSRFSGSGSGTDFTLTISSLQPEDVATYYCQQWTFNPPTFGGGTKVEIK
notes: Fab, His-tagged (anti-His6 detection); constant regions and tag not given
Turning to B1, the “EC50 (read off the curve)” value was around 0.06 µg/mL in the assay with human CD20 [1] and around 0.1 µg/mL with human CD20 [2].

B2: AME 4H5 IgG (antibody, V domains shown)
VH: QVQLVQSGAEVKKPGASVKVSCKASGYTFTSYNMHWVRQAPGQGLEWMGAIYPGNGDTSYNQKFKWRVTMTRDTSTSTVYMELSSLRSEDTAVYYCARSTYYGGDWQFDQWGKGTTVTVSS
VL: DIQMTQSPSSLSASVGDRVTITCRASSSVHYIHWYQQKPGKVPKLLIYATSNLASGVPSRFSGSGSGTDFTLTISSLQPEDVATYYCQQWTFNPPTFGGGTKVEIK
notes: Full IgG
In the case of B2, the “maximum OD relative to the C2B8 antibody” value in the assay with human CD20 [3] is around 1.5 times.

B3: AME 5 IgG (antibody, V domains shown)
VH: QVQLVQSGAEVKKPGASVKVSCKASGYTFTSYNMHWVRQAPGQGLEWMGAIYPGNGDTSYNQKFKWRVTMTRDTSTSTVYMELSSLRSEDTAVYYCARSTYYGGDWQFDEWGKGTTVTVSS
VL: DIQMTQSPSSLSASVGDRVTITCRASSSVHYIHWYQQKPGKVPKLLIYATSGLASGVPSRFSGSGSGTDFTLTISSLQPEDVATYYCQTWTFNPPTFGGGTKVEIK
notes: Full IgG
Take B3: the “fold enhancement of Kd compared to the C2B8 antibody” value in the assay with human CD20 [4] was 10 fold. This molecule displayed a Kd with human CD20 [5] of 145 pM. In the assay with human CD20 [6], this molecule yielded an off-rate (koff) of 7.9e-05 s⁻¹ and a kon of 580000 M⁻¹ s⁻¹.

B4: AME 1D10 Fab (Fab, V domains shown)
VH: EVQLVQSGAEVKKPGESLKISCKGSGYTFTSYNMHWVRQMPGKGLEWMGAIYPLNGDTSYNQKFKLQVTISADKSISTAYLQWSSLKASDTAMYYCARSTYVGGDWTFDVWGKGTTVTVSS
VL: EIVLTQSPGTLSLSPGERATLSCRASSSVPYIHWYQQKPGQAPRLLIYATSNLASGIPDRFSGSGSGTDFTLTISRLEPEDFAVYYCQQWLSNPPTFGQGTKLEIK
notes: as for B1
Turning to B4, the “EC50 (read off the curve)” value in the assay with human CD20 [1] is around 0.06 µg/mL; with human CD20 [2] it was around 0.2 µg/mL.

B5: AME 1D10 IgG (antibody, V domains shown)
VH: EVQLVQSGAEVKKPGESLKISCKGSGYTFTSYNMHWVRQMPGKGLEWMGAIYPLNGDTSYNQKFKLQVTISADKSISTAYLQWSSLKASDTAMYYCARSTYVGGDWTFDVWGKGTTVTVSS
VL: EIVLTQSPGTLSLSPGERATLSCRASSSVPYIHWYQQKPGQAPRLLIYATSNLASGIPDRFSGSGSGTDFTLTISRLEPEDFAVYYCQQWLSNPPTFGQGTKLEIK
notes: Full IgG
As to B5, in the assay with human CD20 [7], the “EC50 (read off the curve)” value is around 0.4 µg/mL. Further, the “maximum OD relative to the C2B8 antibody” value with human CD20 [3] was around 1.5 times.

B6: 21E1 Hum (Fab, V domains shown)
VH: EVQLVQSGAEVKKPGESLKISCKGSGYTFTSYNMHWVRQMPGKGLEWMGAIYPGNGDTSYNQKFKGQVTISADKSISTAYLQWSSLKASDTAMYYCARSTYYGGDWSFDVWGKGTTVTVSS
VL: EIVLTQSPGTLSLSPGERATLSCRASSSVSYIHWYQQKPGQAPRLLIYATSNLASGIPDRFSGSGSGTDFTLTISRLEPEDFAVYYCQQWLSNPPTFGQGTKLEIK
notes: the panels are titled Fab; also called AME 21E1 Hum; AME 21E1 Hum Fab
Regarding B6, the binding result with human CD20 [1] is given as “no binding (tested: about 7 µg/ml)”.

B7: AME 15 Fab (Fab, V domains shown)
VH: EVQLVQSGAEVKKPGESLKISCKGSGYTFTSYNMHWVRQMPGKGLEWMGAIYPLNGDTSYNRKSKLQVTISADKSISTAYLQWSSLKASDTAMYYCARSTYVGGDWTFDVWGKGTTVTVSS
VL: EIVLTQSPGTLSLSPGERATLSCRASSSVPYIHWYQQKPGQAPRLLIYATSNLASGIPDRFSGSGSGTDFTLTISRLEPEDFAVYYCQQWLSNPPTFGQGTKLEIK
notes: as for B1
Turning to B7, the figures for the “EC50 (read off the curve)” value with human CD20 [1] and in the assay with human CD20 [2] were around 0.05 µg/mL and around 0.2 µg/mL, respectively.

B8: AME 15 IgG (antibody, V domains shown)
VH: EVQLVQSGAEVKKPGESLKISCKGSGYTFTSYNMHWVRQMPGKGLEWMGAIYPLNGDTSYNRKSKLQVTISADKSISTAYLQWSSLKASDTAMYYCARSTYVGGDWTFDVWGKGTTVTVSS
VL: EIVLTQSPGTLSLSPGERATLSCRASSSVPYIHWYQQKPGQAPRLLIYATSNLASGIPDRFSGSGSGTDFTLTISRLEPEDFAVYYCQQWLSNPPTFGQGTKLEIK
notes: Full IgG
As for B8, in the assay with human CD20 [7], the 50% effective concentration (EC50 (read off the curve)) is around 0.3 µg/mL. The “maximum OD relative to the C2B8 antibody” value in the assay with human CD20 [3] is around 1.5 times.

B9: AME 18 IgG (antibody, V domains shown)
VH: EVQLVQSGAEVKKPGESLKISCKGSGRTFTSYNMHWVRQMPGKGLEWMGAIYPLTGDTSYNQKFKLQVTISADKSISTAYLQWSSLKASDTAMYYCARSYYVGGDWTFDVWGKGTTVTVSS
VL: EIVLTQSPGTLSLSPGERATLSCRASSSVPYIHWYQQKPGQAPRLLIYATSALASGIPDRFSGSGSGTDFTLTISRLEPEDFAVYYCQQWLSNPPTFGQGTKLEIK
notes: Full IgG
As to B9, in the assay with human CD20 [3], the “maximum OD relative to the C2B8 antibody” value is around 1.5 times.

B10: AME 33 Fab (Fab, V domains shown)
VH: EVQLVQSGAEVKKPGESLKISCKGSGRTFTSYNMHWVRQMPGKGLEWMGAIYPLTGDTSYNQKSKLQVTISADKSISTAYLQWSSLKASDTAMYYCARSTYVGGDWQFDVWGKGTTVTVSS
VL: EIVLTQSPGTLSLSPGERATLSCRASSSVPYIHWYQQKPGQAPRLLIYATSALASGIPDRFSGSGSGTDFTLTISRLEPEDFAVYYCQQWLSNPPTFGQGTKLEIK
notes: Fab
For B10, the “EC50 (read off the curve)” value with human CD20 [1] was around 0.08 µg/mL; with human CD20 [8], around 0.5 µg/mL.

B11: AME 18 Fab (Fab, V domains shown)
VH: EVQLVQSGAEVKKPGESLKISCKGSGRTFTSYNMHWVRQMPGKGLEWMGAIYPLTGDTSYNQKFKLQVTISADKSISTAYLQWSSLKASDTAMYYCARSYYVGGDWTFDVWGKGTTVTVSS
VL: EIVLTQSPGTLSLSPGERATLSCRASSSVPYIHWYQQKPGQAPRLLIYATSALASGIPDRFSGSGSGTDFTLTISRLEPEDFAVYYCQQWLSNPPTFGQGTKLEIK
notes: as for B1
Turning to B11, the “EC50 (read off the curve)” value in the assay with human CD20 [1] is around 0.06 µg/mL; in the assay with human CD20 [8], around 0.3 µg/mL.

B12: AME 2C2 IgG (antibody, V domains shown)
VH: EVQLVQSGAEVKKPGESLKISCKGSGYTFTSYNMHWVRQMPGKGLEWMGAIYPLNGDTSYNQKFKLQVTISADKSISTAYLQWSSLKASDTAMYYCARSTYVGGDWTFDVWGKGTTVTVSS
VL: EIVLTQSPGTLSLSPGERATLSCRASSSVSYIHWYQQKPGQAPRLLIYATSNLASGIPDRFSGSGSGTDFTLTISRLEPEDFAVYYCQQWLSNPPTFGQGTKLEIK
notes: constant regions not spelled out
In the case of B12, the “EC50 (read off the curve)” value with human CD20 [7] was around 0.5 µg/mL.
